This is an account of results in US5648214, “High-affinity oligonucleotide ligands to the tachykinin substance P” (University Research Corporation).

Data set [1] addresses T1, Substance P (SP) (UniProt P20366).
T1 sequence: RPKPQQFFGLM
Particulars: equilibrium dialysis rough estimate at 20 uM RNA, fraction bound 0.017.

The target of data set [2] is T2, Substance P (SP) (UniProt P20366).
T2 chain: RPKPQQFFGLM
Kind of data set: high affinity class 3 ligand; single-point equilibrium dialysis, Kd value only in figure. The following applies: protein: synthetic; tags: synthetic peptide, C-terminal amide; Sigma; 3H-SP from NEN. Here is the method: Equilibrium dialysis experiments were performed with a Spectra/Por® (Spectrum; Houston, Tex.) equilibrium dialyzer, Spectra/Por® (Spectrum; Houston, Tex.) microcell dialysis chambers (200-µl chamber volumes), and 12000–14000 MWCO dialysis membranes (Spectrum; Houston, Tex.). These membranes allow passage of SP but not 107-nt RNAs. Sample volumes were 200 µl on each side of the membrane (i.e., 200 µl per chamber). All experiments were at room temperature in 1× SP binding buffer. RNAs (unlabeled) were denatured prior to re-equilibration in binding buffer as described above for Experiment B. For binding curves (FIG. 4), RNA concentrations between 50 nM and 20 µM were utilized. Single point K_d estimates for individual Experiment B ligands were performed with 200 nM or 1 µM RNA. […] Equilibrium dialysis initiated with ^3H-SP on one side of the membrane and in the absence of RNA was performed to determine the length of time required to attain equilibrium (~2.5 hours for Spectra/Por®-2 membranes); dialysis times for binding measurements were at least one hour longer than this determined time. Following equilibration, samples were withdrawn from the dialysis chambers, added to scintillation fluid, and counted.
Background: Equilibrium dialysis compares concentrations on both sides of a semipermeable membrane.

Broadly, the Kd is the free concentration of one partner at which half of the binding sites on the other are occupied at equilibrium, for simple one-to-one binding. On to “GGGAGCUCAGAAUAAACGCUCAANNNNNNNNNNNNNNNNNNNNNNNNNNNNNNNNNNNNNNNNNNNNNNNNNNNNNNNNNNNNUUCGACAUGAGGCCCGGAUCCGGC [unselected 60N RNA pool]”, for which the equilibrium dissociation constant (Kd) with Substance P (SP) [1] is 1200 µM.

B1: ligand B32 (ssRNA)
RNA: GGGAGCUCAGAAUAAACGCUCAAAAAGGCACUGACCACCCUCAGGAAGAAUAACCGCGGUCACCCGCAUCCGAGUCUAUCAAUUUCGACAUGAGGCCCGGAUCCGGC
For B1, in the data set with Substance P (SP) [2], the binding result is “binds”.
